# From patent publication EP4477673A1, “IMMUNOCONJUGATE AND USE THEREOF” (priority 2022, dated 2023)
# Substitutions are numbered along the chain they refer to. Numbers in names are those of the source. Read-outs that look alike come from different tables or passages of the source.
# T1: IL-2Rβ/γ on M07e cells (human, UniProt P14784 27-551; P31785 23-369)
# T1 sequence (looked up) 1: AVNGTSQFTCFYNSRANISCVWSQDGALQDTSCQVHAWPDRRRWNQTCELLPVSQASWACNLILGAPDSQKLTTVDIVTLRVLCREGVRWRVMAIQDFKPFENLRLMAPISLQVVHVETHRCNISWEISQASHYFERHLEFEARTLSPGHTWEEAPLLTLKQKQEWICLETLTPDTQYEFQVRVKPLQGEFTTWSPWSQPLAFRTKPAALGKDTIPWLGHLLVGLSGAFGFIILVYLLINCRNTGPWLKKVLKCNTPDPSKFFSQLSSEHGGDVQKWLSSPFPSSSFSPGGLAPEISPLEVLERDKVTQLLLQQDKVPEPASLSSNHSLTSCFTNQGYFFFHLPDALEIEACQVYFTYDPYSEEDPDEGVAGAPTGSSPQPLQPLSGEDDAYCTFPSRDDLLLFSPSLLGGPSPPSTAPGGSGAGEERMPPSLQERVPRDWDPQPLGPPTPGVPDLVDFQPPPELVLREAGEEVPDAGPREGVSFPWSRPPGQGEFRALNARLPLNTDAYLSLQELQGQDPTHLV
# T1 sequence (looked up) 2: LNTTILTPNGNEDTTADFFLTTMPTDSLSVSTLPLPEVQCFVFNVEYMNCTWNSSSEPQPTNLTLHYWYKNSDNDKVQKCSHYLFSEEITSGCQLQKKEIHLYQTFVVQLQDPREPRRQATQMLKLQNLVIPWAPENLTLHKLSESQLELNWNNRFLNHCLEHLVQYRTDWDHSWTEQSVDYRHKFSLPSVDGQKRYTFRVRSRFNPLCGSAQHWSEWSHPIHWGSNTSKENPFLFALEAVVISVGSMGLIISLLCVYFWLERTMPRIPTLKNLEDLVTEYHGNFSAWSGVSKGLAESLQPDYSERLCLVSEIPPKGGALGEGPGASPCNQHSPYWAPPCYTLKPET
# T2: human IL-2Rα receptor protein (Sino Biological, 10165-H08H) (human, UniProt P01589 22-213)
# T2 construct: also called CD25
# T2 sequence (looked up): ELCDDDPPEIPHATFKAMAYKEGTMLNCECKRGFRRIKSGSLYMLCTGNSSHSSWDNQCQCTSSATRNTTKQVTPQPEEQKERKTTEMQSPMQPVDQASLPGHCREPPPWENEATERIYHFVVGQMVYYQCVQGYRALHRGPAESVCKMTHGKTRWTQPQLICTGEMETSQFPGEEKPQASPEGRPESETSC
# T3: human IL-2Rβ/γ receptor heterodimer protein (Acrosystem, ILG-H5283) (human, UniProt P14784 27-239; P31785 23-262, limits assumed)
# T3 sequence (looked up) 1: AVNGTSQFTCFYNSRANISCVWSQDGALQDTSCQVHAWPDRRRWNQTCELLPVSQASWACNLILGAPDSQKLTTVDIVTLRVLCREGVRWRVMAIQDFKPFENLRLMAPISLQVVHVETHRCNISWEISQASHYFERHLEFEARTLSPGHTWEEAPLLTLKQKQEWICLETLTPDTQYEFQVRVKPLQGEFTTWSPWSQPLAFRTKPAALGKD
# T3 sequence (looked up) 2: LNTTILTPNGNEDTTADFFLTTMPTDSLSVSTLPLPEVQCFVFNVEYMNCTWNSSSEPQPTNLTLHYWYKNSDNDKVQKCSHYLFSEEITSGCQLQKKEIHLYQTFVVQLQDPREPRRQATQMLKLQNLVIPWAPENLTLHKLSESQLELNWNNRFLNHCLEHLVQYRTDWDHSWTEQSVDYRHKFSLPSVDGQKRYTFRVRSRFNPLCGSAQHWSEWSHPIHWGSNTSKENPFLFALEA
# B1: A17m0902_hIgG4 (antibody, V domains shown)
# VH: EVQLVESGGGLVQPGGSLRLSCAASGLTFSDYSMSWYRQAPGKGRELVAIISGSGVITHYVDSVKGRFTISRDNAKNTLYLQMRSLRAEDTAVYYCRAVSDWEDYWGQGTQVTVSS
# notes: VHH-Fc antibody; not shown: human IgG4 Fc with hinge region and S228P (EU)
# B2: A-N88D (Fc fusion)
# chain (part 1 of 2): B1 VH
# chain (part 2 of 2): GGGGSGGGGSGGGGSAPASSSTKKTQLQLEHLLLDLQMILQGISNYKNPKLTRMLTAKFYMPKKATELKHLQCLEEELKPLEEVLQGAQSKNFHLRPRDLISDINVIVLELKGSETTFMCEYADETATIVEFLNRWITFAQSIISTLT
# chain: B1 VH
# notes: also called PD-1-IL-2v (N88D); not shown: IgG1 hinge (C220S) + Fc Knob chain (L234A, L235A, S354C, T366W, EU); D356/L358 or E356/M358 ver; IgG1 hinge (C220S) + Fc Hole chain (L234A, L235A, Y349C, T366S, L368A, Y407V; may have H435R, Y436F; EU)
# B3: A-D20A (Fc fusion)
# chain (part 1 of 2): B1 VH
# chain (part 2 of 2): B2 chain (part 2 of 2) with D35A, D103N
# chain: B1 VH
# notes: also called PD-1-IL-2v (D20A); not shown: IgG1 hinge (C220S) + Fc Knob chain (L234A, L235A, S354C, T366W, EU); D356/L358 or E356/M358 ver; IgG1 hinge (C220S) + Fc Hole chain (L234A, L235A, Y349C, T366S, L368A, Y407V; may have H435R, Y436F; EU)
# Key:
# human PD-1 [1] = target: T4, human PD-1 (human, UniProt Q15116 25-288); experiment: cell-based or functional assay
# T4 sequence (Q15116 25-288 limits assumed): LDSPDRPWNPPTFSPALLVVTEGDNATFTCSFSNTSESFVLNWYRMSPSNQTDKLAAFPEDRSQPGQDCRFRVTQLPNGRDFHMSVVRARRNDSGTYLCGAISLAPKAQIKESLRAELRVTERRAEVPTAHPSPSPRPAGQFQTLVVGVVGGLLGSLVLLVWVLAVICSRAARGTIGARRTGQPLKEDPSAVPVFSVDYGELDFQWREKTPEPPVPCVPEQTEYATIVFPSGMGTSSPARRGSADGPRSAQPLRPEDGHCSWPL
# [2] = target: T5, cynomolgus monkey PD-1 antigen protein (Sino Biological, 90311-C08H) (cynomolgus monkey, UniProt B0LAJ3 25-170); experiment: SPR Biacore 8K, antibody captured by anti-human IgG (Fc), cynomolgus PD-1 as analyte
# T5 construct: not shown: Tag of the vendor's construct (Sino Biological 90311-C08H, probably a C-terminal His tag)
# T5 sequence (B0LAJ3 entry or part of it C08H C08H limits assumed, form in doubt): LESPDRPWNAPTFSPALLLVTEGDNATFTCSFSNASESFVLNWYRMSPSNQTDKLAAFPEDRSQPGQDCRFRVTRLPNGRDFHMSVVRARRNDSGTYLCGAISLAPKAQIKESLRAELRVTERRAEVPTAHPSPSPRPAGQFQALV
# [3] = target: T6, Human PD-1 antigen protein (Sino Biological, 10377-H08H) (human, UniProt Q15116 25-167); experiment: SPR Biacore 8K, antibody captured by anti-human IgG (Fc), PD-1 as analyte
# T6 sequence (Q15116 25-167 limits assumed): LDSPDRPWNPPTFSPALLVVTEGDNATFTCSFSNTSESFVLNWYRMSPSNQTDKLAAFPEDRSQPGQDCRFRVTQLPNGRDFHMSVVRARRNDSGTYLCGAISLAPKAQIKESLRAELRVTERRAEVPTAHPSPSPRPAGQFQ
# human PD-1 [4] = target: T4, human PD-1; experiment: cell-based or functional assay; remark: listed apart in the source
# IL-2Rβ/γ on M07e cells = target: T1, IL-2Rβ/γ on M07e cells; experiment: cell-based or functional assay
# [5] = target: T6, Human PD-1 antigen protein (Sino …); experiment: SPR Biacore 8K, fusion protein captured by anti-human IgG (Fc), human PD-1 as analyte
# [6] = target: T2, human IL-2Rα receptor protein (Sino …); experiment: SPR Biacore 8K, fusion protein captured by anti-human IgG (Fc), IL-2Rα as analyte
# [7] = target: T3, human IL-2Rβ/γ receptor heterodimer …; experiment: SPR Biacore 8K, fusion protein captured by anti-human IgG (Fc), human IL-2Rβ/γ heterodimer as analyte
# human PD-1 [8] = target: T4, human PD-1; experiment: cell-based or functional assay; remark: listed apart in the source
# [9] = target: T3, human IL-2Rβ/γ receptor heterodimer …; experiment: SPR Biacore 8K; affinity for human IL-2Rβ/γ against A-PC
# human PD-1 [10] = target: T4, human PD-1; experiment: cell-based or functional assay; remark: listed apart in the source
Binder,M07e-hPD-1 cell proliferation activity (%) at 0.0001 nM (human PD-1 [4]) [%],M07e-hPD-1 cell proliferation activity (%) at 0.001 nM (human PD-1 [4]) [%],M07e-hPD-1 cell proliferation activity (%) at 0.01 nM (human PD-1 [4]) [%],M07e-hPD-1 cell proliferation activity (%) at 0.1 nM (human PD-1 [4]) [%],M07e-hPD-1 cell proliferation activity (%) at 1 nM (human PD-1 [4]) [%],M07e-hPD-1 cell proliferation activity (%) at 10 nM (human PD-1 [4]) [%],M07e-hPD-1 cell proliferation activity (%) at 100 nM (human PD-1 [4]) [%],M07e-hPD-1 cell proliferation activity (%) at 1000 nM (human PD-1 [4]) [%],M07e cell proliferation activity (%) at 0.46 nM (IL-2Rβ/γ on M07e cells) [%],M07e cell proliferation activity (%) at 1.4 nM (IL-2Rβ/γ on M07e cells) [%],M07e cell proliferation activity (%) at 4.1 nM (IL-2Rβ/γ on M07e cells) [%],M07e cell proliferation activity (%) at 12 nM (IL-2Rβ/γ on M07e cells) [%],M07e cell proliferation activity (%) at 37 nM (IL-2Rβ/γ on M07e cells) [%],M07e cell proliferation activity (%) at 111 nM (IL-2Rβ/γ on M07e cells) [%],M07e cell proliferation activity (%) at 333 nM (IL-2Rβ/γ on M07e cells) [%],M07e cell proliferation activity (%) at 1000 nM (IL-2Rβ/γ on M07e cells) [%],Kd [5] [nM],koff [5] [s⁻¹],kon [5] [M⁻¹ s⁻¹],binding result [6],also measured
B1,–,–,–,–,–,–,–,–,–,–,–,–,–,–,–,–,–,–,–,–,"IC50, PD-1/PD-L1 NFAT reporter gene system (human PD-1 [1]): 0.435 nM; Kd [2]: 3.28 nM; koff [2]: 0.00108 s⁻¹; kon [2]: 328000 M⁻¹ s⁻¹; Kd [3]: 6.09 nM; koff [3]: 0.00177 s⁻¹; kon [3]: 291000 M⁻¹ s⁻¹"
B2,2.8,3.3,18.1,32.1,41.8,45,61.1,66.9,-1.7,-1.1,-1.5,-1.9,-2.8,-1.8,0.2,14.6,17.6,0.00175,99800,no binding,Kd [7]: 3.38 nM; koff [7]: 0.000215 s⁻¹; kon [7]: 63700 M⁻¹ s⁻¹; M07e-hPD-1 cell proliferation ratio (%) at 0.0001 nM (human PD-1 [8]): 0.8%; M07e-hPD-1 cell proliferation ratio (%) at 0.001 nM (human PD-1 [8]): 0%; M07e-hPD-1 cell proliferation ratio (%) at 0.01 nM (human PD-1 [8]): 4.8%; M07e-hPD-1 cell proliferation ratio (%) at 0.1 nM (human PD-1 [8]): 18.3%; M07e-hPD-1 cell proliferation ratio (%) at 1 nM (human PD-1 [8]): 21.3%; M07e-hPD-1 cell proliferation ratio (%) at 10 nM (human PD-1 [8]): 25.2%; M07e-hPD-1 cell proliferation ratio (%) at 100 nM (human PD-1 [8]): 31.1%; M07e-hPD-1 cell proliferation ratio (%) at 1000 nM (human PD-1 [8]): 45.5%; fold lower affinity than A-PC [9]: ~13 fold; M07e-hPD-1 cell proliferation ratio (%) at 0.0001 nM (human PD-1 [10]): 5.2%; M07e-hPD-1 cell proliferation ratio (%) at 0.001 nM (human PD-1 [10]): 4.4%; M07e-hPD-1 cell proliferation ratio (%) at 0.01 nM (human PD-1 [10]): 13.4%; M07e-hPD-1 cell proliferation ratio (%) at 0.1 nM (human PD-1 [10]): 30.8%; M07e-hPD-1 cell proliferation ratio (%) at 1 nM (human PD-1 [10]): 36%; M07e-hPD-1 cell proliferation ratio (%) at 10 nM (human PD-1 [10]): 35.5%; M07e-hPD-1 cell proliferation ratio (%) at 100 nM (human PD-1 [10]): 41.1%; M07e-hPD-1 cell proliferation ratio (%) at 1000 nM (human PD-1 [10]): 55.4%
B3,2.3,2.9,11.4,24.2,28.5,30.2,32,39.2,-3,-2.6,-1.6,-3,-3.7,-2.4,-1.9,0.6,18.5,0.00168,90600,no binding,Kd [7]: 16 nM; koff [7]: 0.000681 s⁻¹; kon [7]: 42700 M⁻¹ s⁻¹; M07e-hPD-1 cell proliferation ratio (%) at 0.0001 nM (human PD-1 [8]): 0.6%; M07e-hPD-1 cell proliferation ratio (%) at 0.001 nM (human PD-1 [8]): -0.3%; M07e-hPD-1 cell proliferation ratio (%) at 0.01 nM (human PD-1 [8]): 2.6%; M07e-hPD-1 cell proliferation ratio (%) at 0.1 nM (human PD-1 [8]): 8.4%; M07e-hPD-1 cell proliferation ratio (%) at 1 nM (human PD-1 [8]): 10.8%; M07e-hPD-1 cell proliferation ratio (%) at 10 nM (human PD-1 [8]): 10.8%; M07e-hPD-1 cell proliferation ratio (%) at 100 nM (human PD-1 [8]): 13.5%; M07e-hPD-1 cell proliferation ratio (%) at 1000 nM (human PD-1 [8]): 15.4%; fold lower affinity than A-PC [9]: ~63 fold
